PMC4505066 (2015)
Values joined by “and” are separate entries in the source; they are usually repeats but may differ in a detail not shown here. Identical values can stand only once. Like-named read-outs stand apart in the source and are kept apart here. No end group written: not given here.

B1: HDAC4 catalytic domain, wild type (domain or fragment)
chain: TKPRFTTGLVYDTLMLKHQCTCGSSSSHPEHAGRIQSIWSRLQETGLRGKCECIRGRKATLEELQTVHSEAHTLLYGTNPLNRQKLDSKKLLGSLASVFVRLPCGGVGVDSDTIWNEVHSAGAARLAVGCVVELVFKVATGELKNGFAVVRPPGHHAEESTPMGFCYFNSVAVAAKLLQQRLSVSKILIVDWDVHHGNGTQQAFYSDPSVLYMSLHRYDDGNFFPGSGAPDEVGTGPGVGFNVNMAFTGGLDPPMGDAEYLAAFRTVVMPIASEFAPDVVLVSSGFDAVEGHPTPLGGYNLSARCFGYLTKQLMGLAGGRIVLALEGGHDLTAICDASEACVSALLGNELDPLPEKVLQQRPNANAVRSMEKVMEIHSKYWRCLQRTTSTAGRSLIEAQTCENEEAETVT

Columns and labels:
full-length HDAC8 = biological target: T1, full-length HDAC8 (UniProt Q9BY41 1-377); assay: FP
T1 chain: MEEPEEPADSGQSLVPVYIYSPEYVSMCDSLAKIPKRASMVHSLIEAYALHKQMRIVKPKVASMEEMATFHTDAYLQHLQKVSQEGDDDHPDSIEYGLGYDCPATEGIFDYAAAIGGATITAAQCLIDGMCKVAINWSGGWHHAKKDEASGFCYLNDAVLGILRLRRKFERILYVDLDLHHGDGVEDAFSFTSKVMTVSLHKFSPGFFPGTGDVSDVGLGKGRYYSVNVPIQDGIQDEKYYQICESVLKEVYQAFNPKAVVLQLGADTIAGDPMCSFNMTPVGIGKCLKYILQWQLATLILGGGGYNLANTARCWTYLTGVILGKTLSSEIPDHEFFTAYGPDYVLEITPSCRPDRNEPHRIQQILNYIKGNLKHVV

[1] = biological target: B1; assay: FP
HDAC9 catalytic domain = biological target: T2, HDAC9 catalytic domain; assay: FP
T2 chain: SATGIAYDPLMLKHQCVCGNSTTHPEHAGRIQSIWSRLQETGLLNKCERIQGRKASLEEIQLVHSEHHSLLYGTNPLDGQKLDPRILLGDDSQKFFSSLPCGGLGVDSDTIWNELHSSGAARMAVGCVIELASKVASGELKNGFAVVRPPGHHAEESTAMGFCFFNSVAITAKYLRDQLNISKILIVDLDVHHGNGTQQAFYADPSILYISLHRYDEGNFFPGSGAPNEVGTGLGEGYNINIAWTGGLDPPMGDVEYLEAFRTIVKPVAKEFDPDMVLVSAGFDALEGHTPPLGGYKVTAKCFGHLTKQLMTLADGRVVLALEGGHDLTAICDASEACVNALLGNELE

HDAC5 catalytic domain = biological target: T3, HDAC5 catalytic domain; assay: FP
T3 chain: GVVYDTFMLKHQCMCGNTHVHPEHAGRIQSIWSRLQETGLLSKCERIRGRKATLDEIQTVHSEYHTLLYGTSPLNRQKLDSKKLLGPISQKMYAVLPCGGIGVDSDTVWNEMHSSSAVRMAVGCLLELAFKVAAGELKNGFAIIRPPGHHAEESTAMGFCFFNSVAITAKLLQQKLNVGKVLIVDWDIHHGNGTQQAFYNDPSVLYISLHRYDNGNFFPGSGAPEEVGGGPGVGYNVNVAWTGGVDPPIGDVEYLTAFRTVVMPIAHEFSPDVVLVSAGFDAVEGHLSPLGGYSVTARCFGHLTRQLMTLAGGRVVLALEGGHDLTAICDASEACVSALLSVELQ

HDAC7 catalytic domain = biological target: T4, HDAC7 catalytic domain; assay: FP
T4 chain: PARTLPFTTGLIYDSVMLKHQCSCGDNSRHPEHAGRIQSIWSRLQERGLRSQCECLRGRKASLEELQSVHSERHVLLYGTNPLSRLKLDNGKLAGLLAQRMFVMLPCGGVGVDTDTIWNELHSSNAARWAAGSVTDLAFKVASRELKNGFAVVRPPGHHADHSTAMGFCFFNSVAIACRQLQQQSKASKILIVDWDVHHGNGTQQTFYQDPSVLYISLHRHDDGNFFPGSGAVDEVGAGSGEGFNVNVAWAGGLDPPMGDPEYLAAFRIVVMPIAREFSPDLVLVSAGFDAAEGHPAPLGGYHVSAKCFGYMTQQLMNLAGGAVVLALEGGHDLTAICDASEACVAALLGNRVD

[2] = biological target: T5, HDAC4 catalytic domain C667A; assay: FP
T5 chain: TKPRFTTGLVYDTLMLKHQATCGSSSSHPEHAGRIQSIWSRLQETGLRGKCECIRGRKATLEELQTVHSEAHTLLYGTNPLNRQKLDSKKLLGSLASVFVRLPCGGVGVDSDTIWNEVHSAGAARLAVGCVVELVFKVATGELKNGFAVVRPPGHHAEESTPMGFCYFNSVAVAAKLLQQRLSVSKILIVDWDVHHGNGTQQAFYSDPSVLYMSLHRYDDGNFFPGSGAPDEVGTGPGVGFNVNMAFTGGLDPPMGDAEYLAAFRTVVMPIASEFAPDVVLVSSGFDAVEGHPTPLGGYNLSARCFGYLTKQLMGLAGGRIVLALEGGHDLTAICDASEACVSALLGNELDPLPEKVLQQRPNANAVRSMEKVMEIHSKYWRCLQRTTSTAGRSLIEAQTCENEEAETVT

[3] = biological target: T6, HDAC4 catalytic domain C751A; assay: FP
T6 chain: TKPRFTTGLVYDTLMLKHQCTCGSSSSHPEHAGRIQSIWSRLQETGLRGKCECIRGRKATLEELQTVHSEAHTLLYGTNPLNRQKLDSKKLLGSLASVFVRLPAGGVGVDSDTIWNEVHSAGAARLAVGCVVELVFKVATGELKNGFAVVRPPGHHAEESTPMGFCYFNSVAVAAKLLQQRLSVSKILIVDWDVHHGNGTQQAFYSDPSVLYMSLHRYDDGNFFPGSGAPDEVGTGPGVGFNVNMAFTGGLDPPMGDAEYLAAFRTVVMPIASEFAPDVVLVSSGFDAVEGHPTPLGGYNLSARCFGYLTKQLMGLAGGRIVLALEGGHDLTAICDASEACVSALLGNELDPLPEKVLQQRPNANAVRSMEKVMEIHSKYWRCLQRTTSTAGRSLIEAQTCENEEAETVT

[4] = biological target: HDAC4 catalytic domain L728A (UniProt P56524 648-1033, L728A); assay: FP
[5] = biological target: B1; assay: FP
[6] = biological target: T7, HDAC4 catalytic domain H675A; assay: FP
T7 chain: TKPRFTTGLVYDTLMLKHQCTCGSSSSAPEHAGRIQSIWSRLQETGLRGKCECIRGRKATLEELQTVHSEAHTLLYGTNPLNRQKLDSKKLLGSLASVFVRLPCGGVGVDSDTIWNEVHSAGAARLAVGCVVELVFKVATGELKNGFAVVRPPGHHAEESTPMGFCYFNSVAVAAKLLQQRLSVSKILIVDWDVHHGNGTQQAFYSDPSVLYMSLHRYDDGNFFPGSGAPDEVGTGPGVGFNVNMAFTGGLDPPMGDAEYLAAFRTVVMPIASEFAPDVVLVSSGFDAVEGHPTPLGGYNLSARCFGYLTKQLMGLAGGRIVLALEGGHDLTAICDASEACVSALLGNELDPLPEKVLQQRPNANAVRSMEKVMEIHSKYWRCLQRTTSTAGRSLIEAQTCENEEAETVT

[7] = biological target: GSI motif peptide with a mutation to Pro-8 of the motif (UniProt Q9Y618, BODIPY-TMR coupled to the N-terminal cysteine); assay: FP; P8A peptide
[8] = biological target: T8, GSI motif peptide with a mutation to Gln-5 of the motif (UniProt Q9Y618, BODIPY-TMR coupled to the N-terminal cysteine); assay: FP; Q5A peptide
[9] = biological target: T8, GSI motif peptide with a mutation to …; assay: FP; Q5E peptide
[10] = biological target: T9, GSI motif peptide with a mutation to Thr-4 of the motif (UniProt Q9Y618, BODIPY-TMR coupled to the N-terminal cysteine); assay: FP; T4A peptide
[11] = biological target: T9, GSI motif peptide with a mutation to …; assay: FP; T4V peptide

HDAC4 catalytic domain L728A, sequence (P56524 648-1033 L728A): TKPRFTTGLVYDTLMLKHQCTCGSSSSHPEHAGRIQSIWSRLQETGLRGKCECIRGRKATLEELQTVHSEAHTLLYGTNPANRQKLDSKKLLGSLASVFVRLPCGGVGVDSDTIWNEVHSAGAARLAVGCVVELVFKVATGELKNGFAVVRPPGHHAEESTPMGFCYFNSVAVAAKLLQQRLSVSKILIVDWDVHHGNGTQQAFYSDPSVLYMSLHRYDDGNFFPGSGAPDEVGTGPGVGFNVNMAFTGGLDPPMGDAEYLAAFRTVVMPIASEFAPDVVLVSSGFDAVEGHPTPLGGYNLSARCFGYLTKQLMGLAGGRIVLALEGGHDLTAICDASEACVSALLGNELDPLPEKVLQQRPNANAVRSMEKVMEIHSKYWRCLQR

Row | Kd (full-length HDAC8) | Kd [1] | Kd (HDAC9 catalytic domain) | Kd (HDAC5 catalytic domain) | Kd (HDAC7 catalytic domain) | Kd [2] | Kd [3] | Kd [4] | Kd [5] | Kd [6] | Kd [7] | Kd [8] | Kd [9] | Kd [10] | Kd [11] | Binder
1 | > 1000 µM | 5.74 µM and 6.5 µM | 8.34 µM | 4.24 µM | 4.44 µM | > 1000 µM | > 1000 µM | 4.59 µM | 5.6 µM | > 1000 µM |  |  |  |  |  | C(BODIPY‑TMR)PRPLKEGSITQGTPLKYDTG
2 |  |  |  |  |  |  |  |  |  |  | 47 µM | 5.47 µM | 17.7 µM | 14.4 µM | 16.9 µM | B1
